Data: IntAct's records for PubMed 14679199

B1: SH3 and multiple ankyrin repeat domains protein 2 (Rattus norvegicus (Rat)), Q9QX74-4 (parent)
chain: MMSVPGGGAATVMMTGYNNGRYPRNSLYSDCIIEDKTVVLQKKDNEGFGFVLRGAKADTPIEEFTPTPAFPALQYLESVDEGGVAWQAGLRTGDFLIEVNNENVVKVGHRQVVNMIRQGGNHLVLKVVTVTRNLDPDDTARKKAPPPPKRAPTTALTLRSKSMTAELEELVDKASVRKKKDKPEEIVPASKPSRTAENVAIESRVATIKQRPTSRCFPAASDVNSVYERQGIAVMTPTVPGSPKGPFLGLPRGTMRRQKSIDSRIFLSGITEEERQFLAPPMLKFTRSLSMPDTSEDIPPPPQSVPPSPPPPSPTTYNCPRSPTPRVYGTIKPAFNQNPVAKVPPATRSDTVATMMREKGMFYRRELDRFSLDSEDVYSRSPAPQAAFRTKRGQMPENPYSEVGKIASKAVYVPAKPARRKGMLVKQSNVEDSPEKTCSIPIPTIIVKEPSTSSSGKSSQGSSMEIDPQATEPGQLRPDDSLTVSSPFAAAIAGAVRDREKRLEARRNSPAFLSTDLGDEDVGLGPPAPRMQPSKFPEEGGFGDEDETEQPLLPTPGAAPRELENHFLGGGEAGAQGEAGGPLSSTSKAKGPESGPAAALKSSSPASPENYVHPLTGRLLDPSSPLALALSARDRAMQESQQGHKGEAPKADLNKPLYIDTKMRPSVESGFPPVTRQNTRGPLRRQETENKYETDLSKDRRADDKKNMLINIVDTAQQKSAGLLMVHTVDIPVAGPPLEEEEDREDGDTKPDHSPSTVPEGVPKTEGALQISAAPEPAAAPGRTIVAAGSVEEAVILPFRIPPPPLASVDLDEDFLFTEPLPPPLEFANSFDIPDDRAASVPALADLVKQKKSDTPQPPSLNSSQPANSTDSKKPAGISNCLPSSFLPPPESFDAVTDSGIEEVDSRSSSDHHLETTSTISTVSSISTLSSEGGESMDTCTVYADGQAFVVDKPPVPPKPKMKPIVHKSNALYQDTLPEEDTDGFVIPPPAPPPPPGSAQAGVAKVIQPRTSKLWGDVTEVKSPILSGPKANVISELNSILQQMNRGKSVKPGEGLELPVGAKSANLAPRSPEVMSTVSGTRSTTVTFTVRPGTSQPITLQSRPPDYESRTSGPRRAPSPVVSPTELSKEILPTPPSAAAASPSPTLSDVFSLPSQSPAGDLFGLNPAGRSRSPSPSILQQPISNKPFTTKPVHLWTKPDVADWLESLNLGEHKETFMDNEIDGSHLPNLQKEDLIDLGVTRVGHRMNIERALKQLLDR

Variants of: B1
Details: with cftr_mouse Cftr

Variant	effect of a mutation on the interaction
H109R	disrupting interaction
H109A	disrupting interaction
H109Q	with no effect
